From patent US20040235064A1 (YALE UNIVERSITY, published 2004)

Target: T1, CZGFP (Aequorea victoria (GFP part); CZ helix …)
T1 construct: Expressed in E. coli BL21(DE3) and purified for the in vitro assays; expressed from a pET11a plasmid in the colony assays; also called EK-CGFP; C-terminal GFP fusion peptide
Experiment: competition: EK peptide added to refolding NZGFP/CZGFP complex (4 µM), fluorescence at 505 nm; competitor of NZGFP
Experimental: For inhibition experiments all fluorescence measurements were made in triplicate on a Hitachi F-4500 Fluorescence Spectrophotometer with excitation at 475 nm and emission at 505 nm. A 1.2 mM stock solution of equimolar amounts of NZGFP/CZGFP was allowed to reassemble and fluoresce until there was no change in fluorescence (36 hours). The reassembled complex was denatured in 4 M GdmHCl for 4 hours following which different concentrations of EK peptide, NGFP, or CGFP were added and the NZGFP/CZGFP concentration adjusted to 800 μM. The samples were diluted 200 fold into 2 mM DTT, 10 mM Tris.HCl buffer at pH 7.2 to a 20 mM final concentration of Gdm.HCl and allowed to refold and fluoresce. In order to eliminate artifacts from time dependent inhibition, fluorescence measurements were made after 4 hours and after 16 hours and found to be constant.
To verify that the GRIP assay could be utilized for detecting inhibitors of protein-protein interactions (Zutshi, R., et al., 1998, Curr. Opin. Chem. Biol. 2, 62-66), a LZ peptide corresponding to the LZ present in NZGFP (FIG. 4) was synthesized. The reappearance of fluorescence of the disassembled NZGFP/CZGFP complex in an in vitro assay as a function of added peptide was monitored (FIG. 6). The EK peptide (SEQ ID NO: 1) prevented the assembly of the complex (4 μM) with an IC₅₀ value of 31 μM. […]

T1 sequence (chain, as listed by the source): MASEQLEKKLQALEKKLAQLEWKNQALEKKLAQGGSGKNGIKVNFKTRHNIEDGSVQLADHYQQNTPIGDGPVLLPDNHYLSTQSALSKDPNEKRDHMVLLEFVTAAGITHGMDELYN

B1: EK peptide (peptide)
peptide: ALKKELQANKKELAQLKWELQALKKELAQ
notes: Chemically synthesized and HPLC purified; also called LZ peptide
- IC50: 31 µM
